How the values were obtained:
[1] = molecular target: recombinant GBP1 (non-phosphorylated) (human) (UniProt P32455); assay: SEC; GBP1 dimerization: samples without nucleotide or incubated with 1 mM GTP or 1 mM GDP + 10 mM AlF3; free GBP1 or phosphorylated, 14-3-3σ-bound GBP1
[2] = molecular target: endogenous GBP1 (IFNγ-treated THP-1 cells) (human (endogenous in THP-1)) (UniProt P32455); assay: cross-linking; GBP1 oligomerization assay: THP-1 cells (IFNγ±Dox; also ΔPIM1 or Δ14-3-3σ cells) lysed, GBP1 precipitated with CHAPS buffer, pellets cross-linked with 4 mM DSS for 30 minutes at room temperature, immunoblot
[3] = molecular target: 14-3-3θ (UniProt P27348); assay: co-IP of Flag-GBP1 and HA-14-3-3; conditions: reference: wild type; sites S156
[4] = molecular target: 14-3-3ε (UniProt P62258); assay: co-IP of Flag-GBP1 and HA-14-3-3; conditions: reference: wild type; sites S156
[5] = molecular target: 14-3-3ζ (UniProt P63104); assay: co-IP of Flag-GBP1 and HA-14-3-3; conditions: reference: wild type; sites S156
[6] = molecular target: 14-3-3η (UniProt Q04917); assay: co-IP of Flag-GBP1 and HA-14-3-3; conditions: reference: wild type; sites S156
[7] = molecular target: 14-3-3γ (UniProt P61981); assay: co-IP of Flag-GBP1 and HA-14-3-3; conditions: reference: wild type; sites S156
[8] = molecular target: 14-3-3σ (UniProt P31947); assay: co-IP of Flag-GBP1 and HA-14-3-3; conditions: reference: wild type; sites S156
[9] = molecular target: 14-3-3β (UniProt P31946); assay: co-IP of Flag-GBP1 and HA-14-3-3; conditions: reference: wild type; sites S156
[10] = molecular target: phosphorylated Flag-GBP1 (GBP1pS156) purified from THP-1ΔGBP1+Tet-Flag-GBP1 WT cells (human) (UniProt P32455); assay: co-IP; semi-quantitative co-immunoprecipitation: purified phosphorylated Flag-GBP1 bound to Flag(M2)-agarose beads, incubated with different concentrations of purified HA-14-3-3 proteins for 1 hour at 4°C in 25 mM HEPES pH 7.3, 100 mM NaCl, 0.01% Triton X-100, 5% glycerol, 1 mM DTT; blots …
[11] = molecular target: T1, phosphorylated Flag-GBP1 (GBP1pS156) purified from THP-1ΔGBP1+Tet-Flag-GBP1 WT cells (human, UniProt P32455 1-592, phosphoserine at 156); assay: GBP1 phosphorylated at S156; semi-quantitative co-IP
T1 chain: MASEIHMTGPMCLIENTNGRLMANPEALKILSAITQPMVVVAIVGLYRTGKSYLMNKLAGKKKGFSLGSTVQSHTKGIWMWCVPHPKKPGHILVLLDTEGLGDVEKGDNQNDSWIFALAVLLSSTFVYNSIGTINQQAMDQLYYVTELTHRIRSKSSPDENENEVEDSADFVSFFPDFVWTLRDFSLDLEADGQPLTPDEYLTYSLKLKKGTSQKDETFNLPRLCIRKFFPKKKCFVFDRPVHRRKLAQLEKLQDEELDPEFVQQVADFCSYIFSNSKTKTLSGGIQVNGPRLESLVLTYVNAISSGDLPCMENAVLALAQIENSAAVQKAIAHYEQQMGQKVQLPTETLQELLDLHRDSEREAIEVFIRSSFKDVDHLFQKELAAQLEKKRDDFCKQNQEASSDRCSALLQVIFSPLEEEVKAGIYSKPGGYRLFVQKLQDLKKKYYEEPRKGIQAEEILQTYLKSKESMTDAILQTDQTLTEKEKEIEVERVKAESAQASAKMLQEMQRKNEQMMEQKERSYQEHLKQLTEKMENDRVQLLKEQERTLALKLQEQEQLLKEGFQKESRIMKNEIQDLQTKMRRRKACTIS

[12] = molecular target: the molecule itself; assay: cross-linking; GBP1 oligomerization assay: THP-1 cells (IFNγ±Dox; also ΔPIM1 or Δ14-3-3σ cells) lysed, GBP1 precipitated with CHAPS buffer, pellets cross-linked with 4 mM DSS for 30 minutes at room temperature, immunoblot

recombinant GBP1 (non-phosphorylated) (from UniProt P32455 1-592) (natural protein)
stoichiometry N [1]: 2

endogenous GBP1 (IFNγ-treated THP-1 cells) (from UniProt P32455 1-592) (natural protein)
stoichiometry N [2]: 2

GBP1 (from UniProt P32455) S156A
binding against the reference [3]: lost | binding against the reference [4]: lost | binding against the reference [5]: lost | binding against the reference [6]: lost | binding against the reference [7]: lost | binding against the reference [8]: lost | binding against the reference [9]: lost

HA-14-3-3σ (from UniProt P31947 1-248) (natural protein)
Kd [10]: 370 nM

B1: HA-14-3-3θ (natural protein)
chain: MEKTELIQKAKLAEQAERYDDMATCMKAVTEQGAELSNEERNLLSVAYKNVVGGRRSAWRVISSIEQKTDTSDKKLQLIKDYREKVESELRSICTTVLELLDKYLIANATNPESKVFYLKMKGDYFRYLAEVACGDDRKQTIDNSQGAYQEAFDISKKEMQPTHPIRLGLALNFSVFYYEILNNPELACTLAKTAFDEAIAELDTLNEDSYKDSTLIMQLLRDNLTLWTSDSAGEECDAAEGAEN
Kd [11]: 1730 nM

B2: HA-14-3-3ζ (natural protein)
chain: MDKNELVQKAKLAEQAERYDDMAACMKSVTEQGAELSNEERNLLSVAYKNVVGARRSSWRVVSSIEQKTEGAEKKQQMAREYREKIETELRDICNDVLSLLEKFLIPNASQAESKVFYLKMKGDYYRYLAEVAAGDDKKGIVDQSQQAYQEAFEISKKEMQPTHPIRLGLALNFSVFYYEILNSPEKACSLAKTAFDEAIAELDTLSEESYKDSTLIMQLLRDNLTLWTSDTQGDEAEAGEGGEN
Kd [11]: 1120 nM

B3: HA-14-3-3β (natural protein)
chain: MTMDKSELVQKAKLAEQAERYDDMAAAMKAVTEQGHELSNEERNLLSVAYKNVVGARRSSWRVISSIEQKTERNEKKQQMGKEYREKIEAELQDICNDVLELLDKYLIPNATQPESKVFYLKMKGDYFRYLSEVASGDNKQTTVSNSQQAYQEAFEISKKEMQPTHPIRLGLALNFSVFYYEILNSPEKACSLAKTAFDEAIAELDTLNEESYKDSTLIMQLLRDNLTLWTSENQGDEGDAGEGEN
Kd [11]: 2310 nM

B4: HA-14-3-3ε (natural protein)
chain: MDDREDLVYQAKLAEQAERYDEMVESMKKVAGMDVELTVEERNLLSVAYKNVIGARRASWRIISSIEQKEENKGGEDKLKMIREYRQMVETELKLICCDILDVLDKHLIPAANTGESKVFYYKMKGDYHRYLAEFATGNDRKEAAENSLVAYKAASDIAMTELPPTHPIRLGLALNFSVFYYEILNSPDRACRLAKAAFDDAIAELDTLSEESYKDSTLIMQLLRDNLTLWTSDMQGDGEEQNKEALQDVEDENQ
Kd [11]: 1860 nM

B5: HA-14-3-3γ (natural protein)
chain: MVDREQLVQKARLAEQAERYDDMAAAMKNVTELNEPLSNEERNLLSVAYKNVVGARRSSWRVISSIEQKTSADGNEKKIEMVRAYREKIEKELEAVCQDVLSLLDNYLIKNCSETQYESKVFYLKMKGDYYRYLAEVATGEKRATVVESSEKAYSEAHEISKEHMQPTHPIRLGLALNYSVFYYEIQNAPEQACHLAKTAFDDAIAELDTLNEDSYKDSTLIMQLLRDNLTLWTSDQQDDDGGEGNN
Kd [11]: 4200 nM

B6: HA-14-3-3η (natural protein)
chain: MGDREQLLQRARLAEQAERYDDMASAMKAVTELNEPLSNEDRNLLSVAYKNVVGARRSSWRVISSIEQKTMADGNEKKLEKVKAYREKIEKELETVCNDVLSLLDKFLIKNCNDFQYESKVFYLKMKGDYYRYLAEVASGEKKNSVVEASEAAYKEAFEISKEQMQPTHPIRLGLALNFSVFYYEIQNAPEQACLLAKQAFDDAIAELDTLNEDSYKDSTLIMQLLRDNLTLWTSDQQDEEAGEGN
Kd [11]: 6430 nM

B7: GBP1^S156A (Dox-inducible, THP-1ΔGBP1+GBP1^S156A cells) (natural protein, human, UniProt P32455 1-592, looked up)
chain: MASEIHMTGPMCLIENTNGRLMANPEALKILSAITQPMVVVAIVGLYRTGKSYLMNKLAGKKKGFSLGSTVQSHTKGIWMWCVPHPKKPGHILVLLDTEGLGDVEKGDNQNDSWIFALAVLLSSTFVYNSIGTINQQAMDQLYYVTELTHRIRSKASPDENENEVEDSADFVSFFPDFVWTLRDFSLDLEADGQPLTPDEYLTYSLKLKKGTSQKDETFNLPRLCIRKFFPKKKCFVFDRPVHRRKLAQLEKLQDEELDPEFVQQVADFCSYIFSNSKTKTLSGGIQVNGPRLESLVLTYVNAISSGDLPCMENAVLALAQIENSAAVQKAIAHYEQQMGQKVQLPTETLQELLDLHRDSEREAIEVFIRSSFKDVDHLFQKELAAQLEKKRDDFCKQNQEASSDRCSALLQVIFSPLEEEVKAGIYSKPGGYRLFVQKLQDLKKKYYEEPRKGIQAEEILQTYLKSKESMTDAILQTDQTLTEKEKEIEVERVKAESAQASAKMLQEMQRKNEQMMEQKERSYQEHLKQLTEKMENDRVQLLKEQERTLALKLQEQEQLLKEGFQKESRIMKNEIQDLQTKMRRRKACTIS
notes: pLenti-Tet-GBP1 mutated by site-directed mutagenesis; also called phosphodeficient GBP1; source: THP-1ΔGBP1+Tet-GBP1 S156A, Dox-induced, in lysate
stoichiometry N [12]: 2

B8: GBP1^R151A/R153A/K155A (kinase motif mutant, Dox-inducible in THP-1ΔGBP1) (natural protein, human, UniProt P32455 1-592, looked up)
chain: MASEIHMTGPMCLIENTNGRLMANPEALKILSAITQPMVVVAIVGLYRTGKSYLMNKLAGKKKGFSLGSTVQSHTKGIWMWCVPHPKKPGHILVLLDTEGLGDVEKGDNQNDSWIFALAVLLSSTFVYNSIGTINQQAMDQLYYVTELTHAIASASSPDENENEVEDSADFVSFFPDFVWTLRDFSLDLEADGQPLTPDEYLTYSLKLKKGTSQKDETFNLPRLCIRKFFPKKKCFVFDRPVHRRKLAQLEKLQDEELDPEFVQQVADFCSYIFSNSKTKTLSGGIQVNGPRLESLVLTYVNAISSGDLPCMENAVLALAQIENSAAVQKAIAHYEQQMGQKVQLPTETLQELLDLHRDSEREAIEVFIRSSFKDVDHLFQKELAAQLEKKRDDFCKQNQEASSDRCSALLQVIFSPLEEEVKAGIYSKPGGYRLFVQKLQDLKKKYYEEPRKGIQAEEILQTYLKSKESMTDAILQTDQTLTEKEKEIEVERVKAESAQASAKMLQEMQRKNEQMMEQKERSYQEHLKQLTEKMENDRVQLLKEQERTLALKLQEQEQLLKEGFQKESRIMKNEIQDLQTKMRRRKACTIS
notes: pLenti-Tet-GBP1 mutated by site-directed mutagenesis; source: THP-1ΔGBP1+Tet-GBP1 mutant, Dox-induced, in lysate
stoichiometry N [12]: 2

B9: GBP1^R153A/P158A (14-3-3 binding motif mutant, Dox-inducible in THP-1ΔGBP1) (natural protein, human, UniProt P32455 1-592, looked up)
chain: MASEIHMTGPMCLIENTNGRLMANPEALKILSAITQPMVVVAIVGLYRTGKSYLMNKLAGKKKGFSLGSTVQSHTKGIWMWCVPHPKKPGHILVLLDTEGLGDVEKGDNQNDSWIFALAVLLSSTFVYNSIGTINQQAMDQLYYVTELTHRIASKSSADENENEVEDSADFVSFFPDFVWTLRDFSLDLEADGQPLTPDEYLTYSLKLKKGTSQKDETFNLPRLCIRKFFPKKKCFVFDRPVHRRKLAQLEKLQDEELDPEFVQQVADFCSYIFSNSKTKTLSGGIQVNGPRLESLVLTYVNAISSGDLPCMENAVLALAQIENSAAVQKAIAHYEQQMGQKVQLPTETLQELLDLHRDSEREAIEVFIRSSFKDVDHLFQKELAAQLEKKRDDFCKQNQEASSDRCSALLQVIFSPLEEEVKAGIYSKPGGYRLFVQKLQDLKKKYYEEPRKGIQAEEILQTYLKSKESMTDAILQTDQTLTEKEKEIEVERVKAESAQASAKMLQEMQRKNEQMMEQKERSYQEHLKQLTEKMENDRVQLLKEQERTLALKLQEQEQLLKEGFQKESRIMKNEIQDLQTKMRRRKACTIS
notes: as for B8
stoichiometry N [12]: 2

Reference: publication PMC7615196, “PIM1 controls GBP1 activity to limit self-damage and to guard against pathogen infection” (Science (New York, N.Y.), 2023)
